Data as given in US20240026407A1, “MODIFICATION OF SAPONINS” (GLAXOSMITHKLINE BIOLOGICALS SA, priority 2020, published 2024).

Key:
Assay type in all cases: biochemical, Quillaja saponaria
[1] = Experiment 6-1: screening of rhamnosidases for derhamnosylation of saponins in treated bark extract (2%), QS-17 2296 to QS-18 2150 (PAR %); settings: TBE 2%, pH 7.5, 30 degC, 18 h; TIC peak area ratio percent of rhamnosylated starting saponin to derhamnosylated product, LCMS/MS; negative controls 4.876, 5.225
[2] = Experiment 6-1: screening of rhamnosidases for derhamnosylation of saponins in treated bark extract (2%), desglucosyl-QS-17 2134 to QS-21 1988 (PAR %); settings: TBE 2%, pH 7.5, 30 degC, 18 h; TIC peak area ratio percent, LCMS/MS; negative controls 2.719, 2.158
[3] = Experiment 6-1: screening of rhamnosidases for derhamnosylation of saponins in treated bark extract (2%), QS-17 2310 to QS-18 2164 (PAR %); settings: TBE 2%, pH 7.5, 30 degC, 18 h; TIC peak area ratio percent, LCMS/MS; negative controls 3.061, 2.429
[4] = Experiment 6-1: specificity of rhamnosidases towards other rhamnose residues (C3 saccharide rhamnose, C28 saccharide rhamnose); settings: TBE 2%, pH 7.5, 30 degC, 18 h; LCMS/MS; negative controls 0.18, 0.17

Molecule | QS-17 (PAR %) [1] | Peak75 (PAR %) [2] | Peak57 (PAR %) [3] | ratio PP/QS-21 [4]
1012 (protein, Bacteroides thetaiotaomicron) MKSRLKQQIFAISLLACTAISPANALQTHLLREQFQNPSDEAKPWTFWYWMFGAVSKEGITADLEAMKRAGLGGTYLMPIKGIKEGPQYNGKAQQLTPEWWEMVRFSMEEADRLGLKLGMHICDGFALAGGPWMTPKESMQKIVWSDTIVDGGKIKGLHLPQPEAYEGFYEDISLFALPVKEEAADVMPAQITCANIATGNHIDIKKTVNMDDAGVIRSSYPCYIQYEYEQPFTCRNIEIILSGNNYQAHRLKVMASDDGVNYRLVKQLVPARQGWQNTDENSTHAIPATTARYFRFYWTPEGSEPGSEDMDAAKWKPNLKIKELRLHREARLDQWEGKAGLVWRVASSTKKEEIGEQDCYALSQIINLTDPFKNSPSDNFKERTLTATLPKGKWKLLRMGHTATGHTNATAGGGKGLECDKFNPKAVRKQFDNWFAQAFVKTNPDVARRVLKYMHVDSWECGSQNWSDTFAAEFRKRRGYDLMPYLPLLAGIPMESAERSEKILRDVRTTIGELVVDVFYQVLADCAKEYDCQFSAECVAPTMVSDGLLHYQKVDLPMGEFWLNSPTHDKPNDMLDAISGAHIYGKNIIQAEGFTEVRGTWNEHPGILKALLDRNYALGINRLFFHVYVHNPWLDRKPGMTLDGIGLFFQRDQTWWNKGAKAFCEYITRCQSLLQYGHPVADIAVFTGEEMPRRSILPERLVPSLPGIFGAERVESERIRLANEGQPLRVRPVGVTHSANMSDPEKWVNPLRGYAYDSFNKDALLRLAKAENGRMTLPGGASYKVLVLPLPRPMNPDPAALSPEVKQKINELKEAGILIPSLPYKEDDFSSYGLERDLIVPENIAWTHRQGEQGDIYFIANQLEETRTFTASMRIDGRKPECWNPVTGEINADIPYEQKSHRTEITLTLAPNESVFIVYPAEEDDKETSEKERKEKKDSVKEASETGLEATEYTVTFTANGKTIQRQELFDWSKEEDEQIRYYSGTAVYKTTFRWKSKVKEDQQVYLNLGKVCDLATVRVNGIDCGTIWTAPYRADITAALKKGVNELEIEVTNTWANALKGADEGKAPFDGIWTNAKYRRAENTLLPAGLLGPLNFDVANKNK | 5.068% | 2.610% | 3.249% | 0.16
1004 (protein, Bifidobacterium moukalabense) METQVIKPIAVGDLQITRFTIEHFPGDALGIPTATPRMNWTYSRAVPDGSQILLKISRRVPGSPAKEECTYLPPEDNVLVPWQFTPLASREEVFATVQLVSAAHKPLSDPSATLHFEAGLMQEYEHVADFVGPSWAEPETDHRHLPLIRTEIAIKAKPKRARLYLSALGLVEAEINGVKIGNDALIPGWTNYEQRVQCWTYDVTGELNEGANAMGFWLGDGWYRGRLGFDGGYVNYYGDRLGVFAQLEVEYEDGGIEHVYSNAWDRQWKASLGPIVCSDLCEGERYDARLEQPGWSEPGFDDSSWKPVAEIFYDPAKIENPDTSPVRAQEINEPVSITRTGDTPDGRGIWLVDFGQNCTQRIHLHVKGLEAGQSVELHHVEVLEPNGEIATRTLRRGQQHDIYTSNGTDAWWEPRFAMHGFRYAQIEGVAGELTAADIECHVYHSVMDRAGELETSNPLLNRLHANALWSMRSNFVSVPQDCPQRDERMGWTGDICLFAPTAAYLYDVYGFLKSWLKDVRADQVKWGTVPFYVPFIPLGGWAHPQAISTWGDSAVEVPWVLYMESGDPQILADSYDLSRDWIDEVAGYLSPDGVWDRRPDYVLGQLGDWLDPTAPPDDPTQAMTEKELVATAFFARSCAQAEQIARILGNNEDAVRFGDLRRHVTSGFLARFTNLDGTMTSDTQCAYALAIAFGLLDGEPVRRVKAGNRLAKLVRESGGKVSTGFAGTPFVLPALTMTGHNEEAYGLLLSEECPSWLYQVKMGATTTWERWDSMRPDGSLNPGGMTSFNHYALGSVAEWMHAHIGGLEAIEAGWKRFRVAPVIGGGLDHASTSHVTPYGKASVAWKTSAEGVELDVTVPIGATAVVELPDHEPTELAGGTHHLVVAL | 5.076% | 2.553% | 2.942% | 0.16
1028 (protein, listed as Formosa agariphila) MKYNKLLFSLLLLAVFCFSCKEEQKLQTSLDFDKVLLNAKSNPIAIESESPLFSWIIKAEGFGKSQSAYHILVASSLDKLDETHADVWNSNKVESSKSTFVKYEGKELKAATRYYWKVKVWDKSNQESNWSEPQYFQMGLLDESNWGEAKWITLTNDTRTSEYRFREYKTGRMEQPIQVDGFAASYFRNKINLNKEVDNAQVYICGLGYYEFFLNGEKVGDHVLDPAPSNYDKQAYYVNYDITEQLNSGENALGIILGNGFYGQNISWKNDPESDRDLAYGPPTVRVLLKLKYKDGTESEFFSDETWKESTGPIVFNNIYGGDTYDARFELGDWTSTNYDDSSWGFAKETAPEIKNISAQQIPAIKKLQDYEPQNVFKGSDGEWIVDFGQNIAGWVKLNVSEKEGQLIEVITTEALLTNGRDIFPGSTGGGANGMAQIYQYICKGDGQESWEPKFSYHGFRYAKIKGVSTKPDADMIKAVLVATDIQETGSFECSDDLFNKMHNISKWTIVDNVHGIPEDCPHREKCGWLGDAHAFCEYALYNYDMYDFYKKYMEDIRTQMLPTKGHNNPELKFQVPTMIAPGKRTSSYAKIDWGVATMYLPWYNYLYYGDDAIVNEYYPEMKDLTNFYLNFKGENGIMQDGMGDWCPPRWDRRTNPEAMECDPIISANAYFYDVLGIMETFAKMNNDGAFQSEMKAEKEALKDAFNKAFLVEIPNTDFKWYQSQTATVQALQFGMVPEEEIENVVNGLEYDIVEVKGGHHSTGIHGNRYIYTVLSKYGKADLAYRILTTPDFPSQTYIMNSGFTTWPERQFEWETMEGPTNSLNHPMHSGFSAYFFESLGGIKSSTKEAGYKQFIVNPEFPSQITQTKVSVPTPYGDIKNDWSFEEGKLSMTLEIPFNTEANLVLNQAELESLIINGKTFQNLQKNTKSVTLQGSNVILGSGKYKILYNKR | 5.081% | 2.885% | 1.993% | 0.15
1065 (protein, listed as Chitinophaga pinensis) MRIILTAAFLLITSIVSAQYNAWKGSWITNTEDTTATKAPYLRKTFTLDKKVVSATAYVAGVGYHIVFVNGKPVTDAVLEQAYTRYDKRLLYKVYDVTALLSRKGTQSIAAELGNGWYNIQSHAVWGFQNAPWRKTPRLLLDLVIRYDDGTTETIATDNSWKCATGPSQFNCLYSGEIYDARQEVAGWNQTAFNDAGWKQVLLTSSPGGALHEQIMPSIKVIRRIKPVSMKNLGNGKYLFDMGQNFAGVATLNVKGQAGTKVTMYYGEVLKNGELDMVHNTEHMRSMPGELRFQTDVYFLKGGAREVFTPRFVYHGFQYVQIETDQPLELNVHSLEGLFYSTAFEEAGHFTSSDPMINKLYEAARQSYRSNFLSIPTDCPQREKNGWTADAHISTEIGLWNYQTTEGYRKWLHDVRDAQLPSGAMPGIAPSNGWGYDRPGNEEFTFGPAWGSALGFVTWYMYLYHNDTALVREHYDAFKKYTDAVAKGAEGYLFKHGLDDWMSLVKTPMPLTSTAYFYTDAELVAKMARVLGNKADEQTYSRLADSIRAAFNRTYFDANTGVYKDSTMTALSAAVFHGLASPEAAAKTAAQLSSKVQRSNYHADFGVMGTKYVLPTLSDYGYADVAFRMLTDTGYAGWAHWIANGATTLFEDWPGELSHNHIFFGDYCAWYYKTLAGIRPDEAAPGFQHFYIQPAFVKALNFVKADYASSAGMIKVEWKRKGNSIKLSVEIPSRATVRLPAGMTDDKNATRITLNGQQFDQVVLTPGKYTFNLK | 5.015% | 2.458% | 3.194% | 0.17
1020 (protein, listed as Rhodonellum psychrophilum) MKSLSKILTTVTLLLAVFACEKKPAEIVLFSMMDGVEGLSGKTEYLASPYVTAGDRVYMVGHQDGSFPDLGWHVEGEMGGIWNHPIKLMDGFTNAIEIEGNRFCLDNASAFINYPFANKHEFKNSVPGLEVERFQFVPDGKQGLVIEYLFKNVDKSKKSFVFEFDGHTDLMPVWLGDRAGMIDHVDNLVFDDQRQAWRGKDEGNEWYVLFGANQTASHSQGDSSLCNYFPQGKGKSAKLSYEMELSANGEGSLKFFIAGSYSGLDDVQKTFDLIKTHPETFLKDKRTNYDRIASLSKITIPDKELEKTFEWVKYNTEWLVRDIPEVGRGLGAGMPDYPWWFGVDNEYTLKGAIATGRKDLVYATVDLIHKLSVQENDNGKIVHEVSTNGVVFNPGNINETPQFASLIWYVYQWTGDKAFLEKYYPTIKKGLVWLMEENDKDGNLFPDGYGMMEIHGLESEMIDVAVYTQKAFADAAQMALLMAEPEVARSYQQTADLMKAKINTDFWVESANSYADFIGTAAETFPLVDAAIIRADTLGKPWAVEELKLLRKKLSTYPRNKKQGFVLFHNWVVNTPMEMGIADPEKAIKALDKGSKFVNPFGVFVTGIDRDEASQSEDGSFTGSKVFSYTGAVMTLPTGVQAISENNYGRPDQALAYLQMMVKSFGFALPGSIYEVSPDYGMMAQAWNLYSFGVPIVTQFFGIQPDAGNKVIHISTQMPSDWDSAKIEKVLIGDNVLTLSFLRVEGEIQLQINQTKGDWQIDFVFPTGKYNVWKVGGKEVEKTRVGNQEVFRTSGTSISASFK | 5.058% | 2.360% | 3.288% | 0.17
